Measurements taken from paper PMC6514445, “Enterococcal PcfF Is a Ribbon-Helix-Helix Protein That Recruits the Relaxase PcfG Through Binding and Bending of the oriT Sequence” (Frontiers in Microbiology, 2019).
Where a chain is given by its changes, count along the chain named. In names and notes the source's numbering stands.

Tests used:
[1] = biological target: PcfF1-54 (RHH domain, GST tag cleaved off) (Enterococcus faecalis (plasmid pCF10)) (UniProt Q5G3N6); experiment: SEC; Superdex 75 10/300 GL with molecular mass standards; PcfF1-54 after GST cleavage, absorbance at 254 nm
[2] = biological target: the molecule itself; experiment: GEMMA (gas-phase electrophoretic mobility macromolecule analysis); SEC peak of wild type PcfF dialysed against 100 mM ammonium acetate pH 7.8, diluted to 0.025 mg/mL with 0.005% Tween-20
[3] = biological target: the molecule itself; experiment: SEC; Superdex 200 10/300 GL Increase; 20 mM Tris/HCl pH 7.5, 200 mM NaCl; PcfF and its variants, self-association
[4] = biological target: the molecule itself; experiment: crystal structure; SeMet-PcfF, sitting drop at 20°C, 0.2 M lithium sulfate, 0.1 M Bis-Tris pH 6.5, 25% PEG 3350; space group P2_(1), 4 molecules in the asymmetric unit; 1.9 Å
[5] = biological target: PcfF R77S (Enterococcus faecalis plasmid pCF10, UniProt Q5G3N6 1-118, R77S); experiment: EMSA; 100 nM protein; as wild type; EMSA: 30 nM DNA, 10 mM Tris/HCl pH 7.5, 200 mM NaCl (150 mM NaCl with PcfG), 15 min at room temperature; 20% native PAGE in TAE pH 8.0 at 4 C; details: protein: recombinant; chain copies: 2; label: 5' FITC on sense strand
[6] = biological target: PcfF I70S (Enterococcus faecalis plasmid pCF10, UniProt Q5G3N6 1-118, I70S); experiment: as above; details: protein: recombinant; chain copies: 2; label: 5' FITC on sense strand
[7] = biological target: PcfF N73A/Q74A (Enterococcus faecalis plasmid pCF10, UniProt Q5G3N6 1-118, N73A;Q74A); experiment: as above; details: protein: recombinant; chain copies: 2; label: 5' FITC on sense strand
[8] = biological target: PcfF I70S/R77S (Enterococcus faecalis plasmid pCF10, UniProt Q5G3N6 1-118, I70S;R77S); experiment: as above; details: protein: recombinant; chain copies: 2; label: 5' FITC on sense strand
[9] = biological target: PcfF R13L (Enterococcus faecalis plasmid pCF10, UniProt Q5G3N6 1-118, R13L); experiment: EMSA; 100 nM protein; Results also say marked decrease; EMSA: 30 nM DNA, 10 mM Tris/HCl pH 7.5, 200 mM NaCl (150 mM NaCl with PcfG), 15 min at room temperature; 20% native PAGE in TAE pH 8.0 at 4 C; details: protein: recombinant; chain copies: 2; label: 5' FITC on sense strand
[10] = biological target: PcfF R13L/I14A (Enterococcus faecalis plasmid pCF10, UniProt Q5G3N6 1-118, R13L;I14A); experiment: as above; details: protein: recombinant; chain copies: 2; label: 5' FITC on sense strand
[11] = biological target: T1, PcfF (Enterococcus faecalis plasmid pCF10, UniProt Q5G3N6 1-118); experiment: EMSA; EMSA: 30 nM DNA, 10 mM Tris/HCl pH 7.5, 200 mM NaCl (150 mM NaCl with PcfG), 15 min at room temperature; 20% native PAGE in TAE pH 8.0 at 4 C; details: protein: recombinant; tags: N-terminal GST, 3C-cleaved (4 extra residues left); chain copies: 2; label: 5' FITC on sense strand
T1 sequence: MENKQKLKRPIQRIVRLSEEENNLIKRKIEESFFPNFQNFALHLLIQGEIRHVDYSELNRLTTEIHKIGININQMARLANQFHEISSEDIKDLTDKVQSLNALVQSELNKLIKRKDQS

[12] = biological target: T1, PcfF; experiment: EMSA (DNA bending); more pronounced shift than end positions; bending; EMSA: 30 nM DNA, 10 mM Tris/HCl pH 7.5, 200 mM NaCl (150 mM NaCl with PcfG), 15 min at room temperature; 20% native PAGE in TAE pH 8.0 at 4 C; details: protein: recombinant; tags: N-terminal GST, 3C-cleaved (4 extra residues left); chain copies: 2
[13] = biological target: T1, PcfF; experiment: EMSA (DNA bending); EMSA: 30 nM DNA, 10 mM Tris/HCl pH 7.5, 200 mM NaCl (150 mM NaCl with PcfG), 15 min at room temperature; 20% native PAGE in TAE pH 8.0 at 4 C; details: protein: recombinant; tags: N-terminal GST, 3C-cleaved (4 extra residues left); chain copies: 2

Molecule “PcfF1-54 (RHH domain, GST tag cleaved off) (from UniProt Q5G3N6 1-54) (domain or fragment)” has a stoichiometry N [1] of 2.

B1: PcfF (wild type, full length, GST tag cleaved off) (natural protein)
chain: T1 sequence
notes: PcfF accessory factor encoded by plasmid pCF10 of Enterococcus faecalis; GenBank AAW51324; 118 residues, 14 kDa; Cloned in pGEX-6P-2 (BamHI/XhoI); the same is likely here; also called wt PcfF; accessory factor PcfF; source: E. coli BL21(DE3), purified (glutathione-agarose, SEC, 3C protease cleavage, second SEC, reverse purification); not shown: GST, N-terminal, cleaved
In the case of B1, the “stoichiometry N” value [2] is reported as ~2.

B2: PcfF R77S (as run on SEC) (natural protein)
chain: T1 sequence with R77S
notes: PcfF of plasmid pCF10, Enterococcus faecalis; GenBank AAW51324; 118 residues; source: E. coli BL21(DE3), purified (glutathione-agarose, SEC)
B2: binds [3].

B3: PcfF I70S/R77S (as run on SEC) (natural protein)
chain: T1 sequence with I70S, R77S
notes: as for B2
B3: binds [3].

B4: PcfF N73A/Q74A (as run on SEC) (natural protein)
chain: T1 sequence with N73A, Q74A
notes: as for B2
B4: binds [3].

B5: PcfF R13L (natural protein)
chain: T1 sequence with R13L
notes: as for B2
B5: binds [3].

B6: PcfF I14A (natural protein)
chain: T1 sequence with I14A
notes: as for B2
B6: binds [3].

B7: PcfF R16L (natural protein)
chain: T1 sequence with R16L
notes: as for B2
B7: binds [3].

B8: PcfF R13L/I14A (natural protein)
chain: T1 sequence with R13L, I14A
notes: as for B2
B8: binds [3].

B9: PcfF R13L/R16L (natural protein)
chain: T1 sequence with R13L, R16L
notes: as for B2
B9: binds [3].

B10: PcfF R13L/I14A/R16L (natural protein)
chain: T1 sequence with R13L, I14A, R16L
notes: as for B2
B10: binds [3].

B11: Selenomethionine-derivatized PcfF (full length) (natural protein)
chain: T1 sequence
modifications: selenomethionine in place of methionine
notes: PcfF accessory factor encoded by plasmid pCF10 of Enterococcus faecalis; GenBank AAW51324; 118 residues; Probably with the GST cleaved off, as for the wild type; 4 molecules in the asymmetric unit (dimer of dimers); also called SeMet-PcfF; source: E. coli BL21(DE3) in M9 minimal medium with L-selenomethionine, purified as wild type PcfF with 0.5 mM TCEP
B11: binds [4].

B12: PcfF Q105A (natural protein)
chain: T1 sequence with Q105A
notes: PcfF of plasmid pCF10, Enterococcus faecalis; GenBank AAW51324; 118 residues; also called PcfF_(Q105A/W) variants; source: E. coli BL21(DE3), purified (glutathione-agarose, SEC)
B12: binds [3].

B13: PcfF Q105W (natural protein)
chain: T1 sequence with Q105W
notes: as for B12
B13: binds [3].

B14: PcfF I70S (as run on SEC) (natural protein)
chain: T1 sequence with I70S
notes: as for B2
B14: binds [3].

B15: oriT 40 bp (dsDNA)
DNA 1: TCGCAACATGCTAGCATGTTGCTCCGCTTGCAAAAAGAAA
DNA 2: TTTCTTTTTGCAAGCGGAGCAACATGCTAGCATGTTGCGA
B15: binds [5]; binds [6]; binds [7]. B15: binds [8]; no binding [9]; no binding [10]. For the same molecule, the Kd [11] was ~100 nM.

B16: random 44 bp DNA (dsDNA)
DNA 1: AGTGAACTGAAAGAAGAAACACACGTTGCATGAAGAGCTATATA
DNA 2: TATATAGCTCTTCATGCAACGTGTGTTTCTTCTTTCAGTTCACT
B16: no binding [11].

B17: oriT middle 120 bp (dsDNA)
DNA 1: GCGAAATATTGGTACCCCATGGAATCGAGGGATCCTCTAGTCGCAACATGCTAGCATGTTGCTCCGCTTGCAAAAAGAAAAGTCGACACGCGTAGATCTGCTAGCATCGATCCATGGACT
DNA 2: AGTCCATGGATCGATGCTAGCAGATCTACGCGTGTCGACTTTTCTTTTTGCAAGCGGAGCAACATGCTAGCATGTTGCGACTAGAGGATCCCTCGATTCCATGGGGTACCAATATTTCGC
B17: binds [12].

B18: oriT 3' 120 bp (dsDNA)
DNA 1: GTCTCGAGTTTAAAGATATCCAGCTGCCCGGGAGGCCTTCGCGAAATATTGGTACCCCATGGAATCGAGGGATCCTCTAGTCGCAACATGCTAGCATGTTGCTCCGCTTGCAAAAAGAAA
DNA 2: TTTCTTTTTGCAAGCGGAGCAACATGCTAGCATGTTGCGACTAGAGGATCCCTCGATTCCATGGGGTACCAATATTTCGCGAAGGCCTCCCGGGCAGCTGGATATCTTTAAACTCGAGAC
B18: binds [13].
